This passage reports ratio to parent and response results from publication PMC4919659 (2016).

Sequences and labels used below:
B1: EGFP-RASSF1 (wild type) [not stated] / myc-MST1 K59R [not stated] (parent complex)
chain 1: MSGEPELIELRELAPAGRAGKGRTRLERANALRIARGTACNPTRQLVPGRGHRFQPAGPATHTWCDLCGDFIWGVVRKGLQCAHCKFTCHYRCRALVCLDCCGPRDLGWEPAVERDTNVDEPVEWETPDLSQAEIEQKIKEYNAQINSNLFMSLNKDGSYTGFIKVQLKLVRPVSVPSSKKPPSLQDARRGPGRGTSVRRRTSFYLPKDAVKHLHVLSRTRAREVIEALLRKFLVVDDPRKFALFERAERHGQVYLRKLLDDEQPLRLRLLAGPSDKALSFVLKENDSGEVNWDAFSMPELHNFLRILQREEEEHLRQILQKYSYCRQKIQEALHACPLG
chain 2: METVQLRNPPRRQLKKLDEDSLTKQPEEVFDVLEKLGEGSYGSVYKAIHKETGQIVAIRQVPVESDLQEIIKEISIMQQCDSPHVVKYYGSYFKNTDLWIVMEYCGAGSVSDIIRLRNKTLTEDEIATILQSTLKGLEYLHFMRKIHRDIKAGNILLNTEGHAKLADFGVAGQLTDTMAKRNTVIGTPFWMAPEVIQEIGYNCVADIWSLGITAIEMAEGKPPYADIHPMRAIFMIPTNPPPTFRKPELWSDNFTDFVKQCLVKSPEQRATATQLLQHPFVRSAKGVSILRDLINEAMDVKLKRQESQQREVDQDDEENSEEDEMDSGTMVRAVGDEMGTVRVASTMTDGANTMIEHDDTLPSQLGTMVINAEDEEEEGTMKRRDETMQPAKPSFLEYFEQKEKENQINSFGKSVPGPLKNSSDWKIPQDGDYEFLKSWTVEDLQKRLLALDPMMEQEIEEIRQKYQSKRQPILDAIEAKKRRQQNF
B2: EGFP-RASSF5C (wild type) [not stated] / myc-MST1 K59R [not stated] (parent complex)
chain 1: MTVDSSMSSGYCSLDEELEDCFFTAKTTFFRNAQSKHLSKNVCKPVEETQRPPTLQEIKQKIDSYNTREKNCLGMKLSEDGTYTGFIKVHLKLRRPVTVPAGIRPQSIYDAIKEVNLAATTDKRTSFYLPLDAIKQLHISSTTTVSEVIQGLLKKFMVVDNPQKFALFKRIHKDGQVLFQKLSIADRPLYLRLLAGPDTEVLSFVLKENETGEVEWDAFSIPELQNFLTILEKEEQDKIQQVQKKYDKFRQKLEEALRESQGKPG
chain 2: B1 chain 2
B3: EGFP-RASSF5C (wild type) [not stated] / mCherry-SARAH_(MST1) [not stated] (parent complex)
chain 1: B2 chain 1
chain 2: DYEFLKSWTVEDLQKRLLALDPMMEQEIEEIRQKYQSKRQPILDAIEAKKRRQQNF
B4: EGFP-RASSF1 (wild type) [not stated] / mCherry-SARAH_(MST1) [not stated] (parent complex)
chain 1: B1 chain 1
chain 2: B3 chain 2

The variants in the first experiment derive from B1. The experiment in a line: co-immunoprecipitation (IP anti-myc, IB anti-GFP), band quantification; n = 3; parent: 1.05; read off a plot.
Regarding chain 1 L308P, the ratio to parent was around 0.13.
As for chain 1 L301P, the ratio to parent was around 0.32.
Regarding chain 1 L305P, the ratio to parent was around 0.07.

A further experiment covers variants of B2. Briefly: co-immunoprecipitation (IP anti-myc, IB anti-GFP), band quantification; n = 3; parent: 1.02; read off a plot.
For the variant chain 1 L224P, the ratio to parent is around 0.98.
chain 1 L228P: the ratio to parent was around 0.9.
In the case of chain 1 L231P, the ratio to parent was around 0.85.

The next experiment covers variants of B3. Briefly: FRET-FLIM in cells (EGFP donor lifetime, monoexponential fit, wide-field imaging); co-expressed with mCherry-SARAH(MST1); median of segmented cells; parent: 2.27e+03; read off a plot.
chain 1 L231P: the response was around 2430 ps.
In the case of chain 1 L228P, the response is around 2490 ps.
Still for that read-out and setting: under chain 1 L224P stands around 2380 ps.

In a further experiment the parent is B4. Briefly: FRET-FLIM in cells (EGFP donor lifetime, monoexponential fit, wide-field imaging); co-expressed with mCherry-SARAH(MST1); median of segmented cells; parent: 2.25e+03; read off a plot.
Regarding chain 1 L308P, the response was around 2500 ps.
In the case of chain 1 L301P, the response was around 2510 ps.
For the variant chain 1 L305P, the response was around 2490 ps.
